Assay results: article PMC11874658, “CmHRE2L-CmACS6 transcriptional cascade negatively regulates waterlogging tolerance in Chrysanthemum”

Target: CmHRE2-like (CmHRE2L) (UniProt A0AA96PUJ9 1-225)
Experiment: EMSA; LightShift Chemiluminescent EMSA Kit (Thermo Fisher); buffer, salt, pH and temperature not stated
Settings: protein: recombinant; tags: GST (pGEX4T-1, N-terminal); label: biotin

CmHRE2-like (CmHRE2L), sequence (A0AA96PUJ9 entry or part of it): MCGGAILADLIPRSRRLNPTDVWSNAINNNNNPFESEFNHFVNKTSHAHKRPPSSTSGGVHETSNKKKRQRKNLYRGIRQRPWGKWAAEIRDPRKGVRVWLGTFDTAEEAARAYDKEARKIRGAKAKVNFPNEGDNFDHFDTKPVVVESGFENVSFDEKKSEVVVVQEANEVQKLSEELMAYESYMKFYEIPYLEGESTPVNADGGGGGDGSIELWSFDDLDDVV

B1: Biotin-mP, probe with mutated cis-element 3 (dsDNA)
DNA 1: ACCTTCATATGCATGAAAAAAAAATTTTCCACTCAACA
DNA 2: TGTTGAGTGGAAAATTTTTTTTTCATGCATATGAAGGT
binding result: no binding
